Data: publication PMC4859069 (2016)

Molecular target: T1, GST-14-3-3ζ (Drosophila melanogaster (Fruit fly), UniProt P29310)
T1 chain: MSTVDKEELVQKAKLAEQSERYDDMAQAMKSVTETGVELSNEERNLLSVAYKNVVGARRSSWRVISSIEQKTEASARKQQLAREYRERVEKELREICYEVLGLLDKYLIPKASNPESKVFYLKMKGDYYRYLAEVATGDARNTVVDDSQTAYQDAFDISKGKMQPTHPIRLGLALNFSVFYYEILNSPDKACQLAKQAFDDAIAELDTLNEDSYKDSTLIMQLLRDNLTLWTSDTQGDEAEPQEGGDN
Experiment: GST pull-down

binding result: binds
B1: MBP-Tctp (protein)
chain: MKIYKDIITGDEMFADTYKMKLVDDVIYEVYGKLITRQGDDIKLEGANASAEEADEGTDITSESGVDVVLNHRLTECFAFGDKKSYTLYLKDYMKKVLAKLEEKSPDQVDIFKTNMNKAMKDILGRFKELQFFTGESMDCDGMVALVEYREINGDSVPVLMFFKHGLEEEKC
